We go through 13 molecules from paper doi:10.1101/2025.11.26.690650 (bioRxiv, 2025).

Where two headings read alike, the source gives them in different places.

Series [1] addresses TCV P38_W274A (Turnip crinkle virus) (UniProt P06663). In words: native MS.
The target in series [2] is T1, TCV P38 (capsid protein, VSR) wild type (Turnip crinkle virus (pTCV cDNA), UniProt P06663 1-351).
T1 sequence: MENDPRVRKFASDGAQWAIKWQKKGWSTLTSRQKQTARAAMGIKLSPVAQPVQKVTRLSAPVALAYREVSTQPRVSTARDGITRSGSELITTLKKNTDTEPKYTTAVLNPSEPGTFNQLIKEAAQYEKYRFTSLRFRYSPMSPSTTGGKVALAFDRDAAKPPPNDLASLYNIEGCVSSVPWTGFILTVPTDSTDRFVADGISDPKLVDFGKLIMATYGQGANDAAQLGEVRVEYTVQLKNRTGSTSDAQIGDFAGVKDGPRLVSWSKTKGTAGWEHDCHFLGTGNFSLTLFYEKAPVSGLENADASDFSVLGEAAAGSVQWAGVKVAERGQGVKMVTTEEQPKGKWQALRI
In words: EMSA.

Series [3] has as its target T1, TCV P38 (capsid protein, VSR) wild type. As to the kind of experiment: competition.
Series [4] has the same target. In words: competition. The source holds these as a separate data set.
Series [5] has the same target. In words: competition. The source holds these as a separate data set.
Series [6] has the same target. In words: EMSA. This is another data set of the same source. (In general: In EMSA bound probe runs differently from free probe, usually more slowly.)
For series [7] the target is unchanged. As to the kind of experiment: EMSA. The source holds these as a separate data set.
Series [8] deals with the molecule itself. As to the kind of experiment: crystal structure.
Series [9] concerns the molecule itself. As to the kind of experiment: AUC.

For orientation: stoichiometry N means the number of molecules, sites or subunits per partner or assembly. As for “TCV P38_W274A (from UniProt P06663 1-351) (natural protein)”, the stoichiometry N in series [1] stood at 2.

B1: NbmiR403a (dsRNA)
RNA 1: UUAGAUUCACGCACAAACUCG
RNA 2: UGUUUGUGCGUGAAUCUGACA
modifications: 5'-phosphate
Usually Kd stands for a measure of binding affinity in units of concentration. Read a low Kd as a tighter complex. B1: binding in series [2] was characterised by a dissociation constant (Kd) of 360 ± 50 pM.

B2: dsRNA_33 (dsRNA)
RNA 1: CUAAGAUGCUCGCUGCCAAUGAACGACCCUCCCUAA
RNA 2: UUAGGGAGGGUCGUUCAUUGGCAGCGAGCAUCU
modifications: 5'-phosphate
As a reminder, the Ki is the equilibrium dissociation constant of an inhibitor or competing ligand from its target. With B2, the results for the Ki in [3], in series [4] and in series [5] were 70 ± 30 pM, 140 ± 30 pM and 60 ± 10 pM, respectively. The Kd in [6] turned out to be 770 ± 50 pM.

B3: NbmiR403b (dsRNA)
RNA 1: UUAGAUUCACGCACAAACUCG
RNA 2: UGUUUGUGCGUGAUUCUGACA
modifications: 5'-phosphate
In series [2], B3 displayed a Kd of 1270 ± 100 pM.

B4: AtmiR162 (dsRNA)
RNA 1: UCGAUAAACCUCUGCAUCCAG
RNA 2: GGAGGCAGCGGUUCAUCGAUC
modifications: 5'-phosphate
Turning to B4, the Ki in series [3] stood at 500 ± 150 pM; in series [5] it was 330 ± 170 pM. Besides, the Kd in [2] is 300 ± 30 pM.

B5: siR gf698_21 (dsRNA)
RNA 1: UAGUUCAUCCAUGCCAUGUGU
RNA 2: ACAUGGCAUGGAUGAACUAUA
modifications: 5'-phosphate
B5 had a Ki in series [3] of 700 ± 70 pM. Also, the Kd in [2] stood at 560 ± 90 pM.

B6: AtmiR168 (dsRNA)
RNA 1: UCGCUUGGUGCAGGUCGGGAA
RNA 2: CCCGCCUUGCAUCAACUGAAU
modifications: 5'-phosphate
Regarding B6, the Ki in series [3] amounted to 950 ± 300 pM; in series [5], 700 ± 200 pM. The molecule further returned a Kd in series [2] of 550 ± 50 pM.

On to UAGUUCAUCCAUGCCAUGUGUAAU (ssRNA, 5'-phosphate) [ss gf698_24], for which the binding result in [7] is given as “no binding”.

B7: siR gf698_22 (dsRNA)
RNA 1: UAGUUCAUCCAUGCCAUGUGUA
RNA 2: CACAUGGCAUGGAUGAACUAUA
modifications: 5'-phosphate
B7: the Ki turned out to be 570 ± 60 pM in [3], 180 ± 50 pM in series [4] and 350 ± 100 pM in series [5]. Besides, the Kd in series [2] is 530 ± 70 pM.

B8: siR gf698_24 (dsRNA)
RNA 1: UAGUUCAUCCAUGCCAUGUGUAAU
RNA 2: UACACAUGGCAUGGAUGAACUAUA
modifications: 5'-phosphate
With B8, the Ki is 330 ± 30 pM in series [3], 400 ± 100 pM in [4] and 330 ± 80 pM in series [5]. This molecule yielded a Kd in series [2] of 440 ± 90 pM.

B9: Turnip crinkle virus P38 protein (TCV P38), wildtype (natural protein, UniProt P06663 1-351, looked up)
chain: MENDPRVRKFASDGAQWAIKWQKKGWSTLTSRQKQTARAAMGIKLSPVAQPVQKVTRLSAPVALAYREVSTQPRVSTARDGITRSGSELITTLKKNTDTEPKYTTAVLNPSEPGTFNQLIKEAAQYEKYRFTSLRFRYSPMSPSTTGGKVALAFDRDAAKPPPNDLASLYNIEGCVSSVPWTGFILTVPTDSTDRFVADGISDPKLVDFGKLIMATYGQGANDAAQLGEVRVEYTVQLKNRTGSTSDAQIGDFAGVKDGPRLVSWSKTKGTAGWEHDCHFLGTGNFSLTLFYEKAPVSGLENADASDFSVLGEAAAGSVQWAGVKVAERGQGVKMVTTEEQPKGKWQALRI
For B9, the “stoichiometry N” value in series [8] was determined as 60; in series [9] it was 2.

With UAGUUCAUCCAUGCCAUGUGU (ssRNA, 5'-phosphate) [ss gf698_21], in series [7], the binding result was “no binding”.

B10: AtmiR403a (dsRNA)
RNA 1: UUAGAUUCACGCACAAACUCG
RNA 2: UGUUUUGUGCUUGAAUCUAAUU
modifications: 5'-phosphate
Take B10: in series [2], the Kd came out at 870 ± 130 pM.
